Measured values: patent EP4248993A1 (Charité - Universitätsmedizin Berlin, dated 2023)

Target: MERS-CoV RBD Twin-Strep His (wild type, G372-L588) (MERS-CoV)
Test: serum pull-down with RBD-TwinStrep on streptavidin magnetic beads

B1: circulating mouse DPP4 (from serum) (receptor)
chain: SRRTYSLADYLKSTFRVKSYSLWWVSDFEYLYKQENNILLLNAEHGNSSIFLENSTFESFGYHSVSPDRLFVLLEYNYVKQWRHSYTASYNIYDVNKRQLITEEKIPNNTQWITWSPEGHKLAYVWKNDIYVKVEPHLPSHRITSTGEENVIYNGITDWVYEEEVFGAYSALWWSPNNTFLAYAQFNDTGVPLIEYSFYSDESLQYPKTVWIPYPKAGAVNPTVKFFIVNIDSLSSSSSAAPIQIPAPASVARGDHYLCDVVWATEERISLQWLRRIQNYSVMAICDYDKINLTWNCPSEQQHVEMSTTGWVGRFRPAEPHFTSDGSSFYKIISDKDGYKHICHFPKDKKDCTFITKGAWEVISIEALTSDYLYYISNQYKEMPGGRNLYKIQLTDHTNVKCLSCDLNPERCQYYAVSFSKEAKYYQLGCWGPGLPLYTLHRSTDHKELRVLEDNSALDRMLQDVQMPSKKLDFIVLNETRFWYQMILPPHFDKSKKYPLLLDVYAGPCSQKADASFRLNWATYLASTENIIVASFDGRGSGYQGDKIMHAINRRLGTLEVEDQIEAARQFVKMGFVDSKRVAIWGWSYGGYVTSMVLGSGSGVFKCGIAVAPVSRWEYYDSVYTERYMGLPIPEDNLDHYRNSTVMSRAEHFKQVEYLLIHGTADDNVHFQQSAQISKALVDAGVDFQAMWYTDEDHGIASSTAHQHIYSHMSHFLQQCFSLH
**Q.** Does B1 bind?
**A.** no binding
